Source: patent US20140315251A1 (ZOETIS SERVICES, published 2014)

Experiments:
[1] = biological target: T1, feline IL-31 full-length construct for E. coli expression (feline); assay: Western blot of purified IL-31 proteins
T1 construct: Purified from E. coli under denaturing conditions and dialysed; also called feline IL-31 protein
T1 chain: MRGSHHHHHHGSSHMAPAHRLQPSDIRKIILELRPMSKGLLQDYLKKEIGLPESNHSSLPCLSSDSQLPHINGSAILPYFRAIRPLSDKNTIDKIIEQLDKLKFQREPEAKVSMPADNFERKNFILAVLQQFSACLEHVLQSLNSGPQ

pET101D-lacZ protein = biological target: T2, pET101D-lacZ protein (UniProt P00722 1-1024 = β-galactosidase, limits assumed); assay: Western blot of crude E. coli lysates
T2 construct: Control lane on the truncation blots; also called beta-galactosidase (lacZ)
T2 sequence (P00722 whole entry, the tested form may be a part): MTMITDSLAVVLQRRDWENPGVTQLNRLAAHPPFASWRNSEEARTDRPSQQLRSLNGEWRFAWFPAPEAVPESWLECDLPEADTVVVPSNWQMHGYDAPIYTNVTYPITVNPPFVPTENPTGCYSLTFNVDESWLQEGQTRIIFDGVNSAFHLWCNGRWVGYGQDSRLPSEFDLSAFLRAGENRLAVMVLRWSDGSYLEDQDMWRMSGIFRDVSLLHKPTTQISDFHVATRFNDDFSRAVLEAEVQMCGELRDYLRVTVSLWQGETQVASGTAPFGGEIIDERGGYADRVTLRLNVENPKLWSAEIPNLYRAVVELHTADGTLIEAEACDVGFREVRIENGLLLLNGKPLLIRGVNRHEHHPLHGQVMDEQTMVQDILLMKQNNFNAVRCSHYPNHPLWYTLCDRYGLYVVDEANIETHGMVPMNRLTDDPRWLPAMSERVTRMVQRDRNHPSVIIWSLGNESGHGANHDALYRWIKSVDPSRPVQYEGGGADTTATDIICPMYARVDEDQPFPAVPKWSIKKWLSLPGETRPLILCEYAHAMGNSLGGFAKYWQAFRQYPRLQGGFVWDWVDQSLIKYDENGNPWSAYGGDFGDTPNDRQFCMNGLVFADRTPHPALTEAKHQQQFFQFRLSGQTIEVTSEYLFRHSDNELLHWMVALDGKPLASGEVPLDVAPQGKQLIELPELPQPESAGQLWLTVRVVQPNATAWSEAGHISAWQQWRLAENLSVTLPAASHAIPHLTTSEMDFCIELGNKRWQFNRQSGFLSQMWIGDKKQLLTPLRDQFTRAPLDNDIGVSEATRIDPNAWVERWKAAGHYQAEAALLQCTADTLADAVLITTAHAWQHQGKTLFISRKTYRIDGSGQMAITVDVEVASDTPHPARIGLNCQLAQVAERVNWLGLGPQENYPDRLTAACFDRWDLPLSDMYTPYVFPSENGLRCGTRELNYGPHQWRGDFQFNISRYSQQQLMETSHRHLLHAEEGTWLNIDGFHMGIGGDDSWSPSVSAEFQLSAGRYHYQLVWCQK
Protocol: (§1) It was observed that the full length IL-31 protein was expressed very poorly. […] Antibodies 11E12 and 34D03 all bound to the −20N protein. Therefore, further work was carried out using this −20 N construct. Constructs representing C-terminal truncations at positions 20-122 (MW 15.3 with his tag), 20-100 (MW 12.9 with his tag), and 20-80 (MW 10.4 with his tag), were made to assess mAb binding to these areas on the IL-31 protein. The amino acid and nucleotide sequences corresponding to the 20-122 construct are SEQ ID NOs: 63 and 64, respectively. The amino acid and nucleotide sequences corresponding to the 20-100 construct are SEQ ID NOs: 65 and 66, respectively. The amino acid and nucleotide sequences corresponding to the 20-80 construct are SEQ ID NOs: 67 and 68, respectively. […] This region corresponds to amino acid Nos. between amino acid residues 102 and 122 of the canine IL-31 full-length protein sequence of SEQ ID NO: 32. […] In addition, the pET101D-lacZ protein was used as a control to confirm the lack of non-specific binding of mAbs to host proteins.

[2] = biological target: T1, feline IL-31 full-length construct for …; assay: Western blot under reducing conditions, purified protein from mammalian and E. coli sources
[3] = biological target: T3, canine IL-31 full-length construct for E. coli expression (canine); assay: Western blot of purified IL-31 proteins
T3 construct: also called canine IL-31 (E. coli)
T3 chain: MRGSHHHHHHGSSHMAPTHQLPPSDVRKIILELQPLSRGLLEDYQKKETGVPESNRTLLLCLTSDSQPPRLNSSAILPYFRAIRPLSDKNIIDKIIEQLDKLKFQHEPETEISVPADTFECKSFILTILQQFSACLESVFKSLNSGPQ

[4] = biological target: T4, canine IL-31 with triple alanine substitution (I81A, D82A, I85A) (canine); assay: Western blot of E. coli lysates
T4 construct: Positions count on the full-length E. coli construct; also called triple mutation
Source text: (§2) To examine the impact of multiple mutations in the region of IL-31 important for binding to the 11E12 and 34D03 antibodies, expression plasmids were constructed with double (D82A, […]) and triple (I81A, D82A, I85A) alanine substitutions. E. coli lysates expressing canine IL-31 with these double and triple mutations in addition to the −20N control were blotted with 11E12 and 34D03 antibodies (FIG. 16). It is apparent that these three amino acids on canine IL-31 are involved with recognition of 11E12 and 34D03 as complete abrogation of binding is observed when these sites are changed to alanine. These three amino acids correspond to amino acid residues 103, 104 and 107 of the canine IL-31 full-length protein sequence of SEQ ID NO: 32.

[5] = biological target: T5, canine IL-31 with double alanine substitution (D82A, I85A) (canine); assay: Western blot of E. coli lysates
T5 construct: The -20N backbone is stated for the alanine scan and -20N was the control on this blot; also called double mutation
Source text: as §2

[6] = biological target: T6, canine IL-31 -20N construct (canine); assay: Western blot of crude E. coli lysates
T6 construct: Crude E. coli lysate on Western blot; also called N-terminal truncation -20N; -20N protein
Protocol: as §1

[7] = biological target: T7, canine IL-31 20-122 construct (canine); assay: Western blot of crude E. coli lysates
T7 construct: also called C-terminal truncation at positions 20-122
T7 chain: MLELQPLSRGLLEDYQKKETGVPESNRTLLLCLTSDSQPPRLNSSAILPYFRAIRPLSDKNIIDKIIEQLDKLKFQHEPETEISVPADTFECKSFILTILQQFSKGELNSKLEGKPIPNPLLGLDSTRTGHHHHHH
Protocol: as §1

[8] = biological target: T8, canine IL-31 20-100 construct (canine); assay: Western blot of crude E. coli lysates
T8 construct: The range counts on the full-length E. coli construct; also called C-terminal truncation at positions 20-100
Protocol: as §1

[9] = biological target: T9, canine IL-31 -40N construct (canine); assay: Western blot of crude E. coli lysates
T9 construct: Crude E. coli lysate on Western blot; also called N-terminal truncation -40N
Protocol: as §1

[10] = biological target: T10, canine IL-31 20-80 construct (canine); assay: Western blot of crude E. coli lysates
T10 construct: The range counts on the full-length E. coli construct; also called C-terminal truncation at positions 20-80
T10 chain: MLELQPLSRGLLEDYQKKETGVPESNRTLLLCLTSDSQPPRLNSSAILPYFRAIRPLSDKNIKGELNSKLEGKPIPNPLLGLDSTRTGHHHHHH
Protocol: as §1

[11] = biological target: T11, canine IL-31 -60N construct (canine); assay: Western blot of crude E. coli lysates
T11 construct: Crude E. coli lysate on Western blot; also called N-terminal truncation -60N
Protocol: as §1

B1: Mouse 11E12 (antibody, V domains shown)
VH: QVQLQQSGAELVKPGASVKLSCKASGYTFKYYDINWVRQRPEQGLEWIGWIFPGDGGTKYNETFKGKATLTTDKSSSTAYMQLSRLTSEDSAVYFCARGGTSVIRDAMDYWGQGTSVTVSS
VL: DIVLTQSPASLAVSLGQRATISCRASESVDNYGISFMHWYQQKPGQPPKLLIYRASNLESGIPARFSGSGSRTDFTLTINPVETDDVATYYCQQSNKDPLTFGAGTKLELK
notes: Mouse hybridoma monoclonal; also called mAb 11E12; MU-11E12
[1]
  binding result: binds
pET101D-lacZ protein
  binding result: no binding

B2: Felinized 34D03 (antibody, V domains shown)
VH: DVQLVESGGDLVKPGGSLRLTCVASGFTYSNYGMSWVRQAPGKGLQWVATISYGGSYTYYPDNIKGRFTISRDNAKNTLYLQMNSLKTEDTATYYCVRGYGYDTMDYWGQGTLVTVSS
VL: EIQMTQSPSSLSASPGDRVTITCKASQSVSFAGTGLMHWYQQKPGKVPKLLIYRASNLEAGVPSRFSGSGSGTDFTLTISSLEPEDAATYYCQQSREYPWTFGQGTKLEIKR
notes: Produced from HEK cells; also called feline 34D03; felinized antibody 34D03
[2]
  binding result: binds

B3: Mouse 34D03 (antibody, V domains shown)
VH: EVQLVESGGDLVKPGGSLKLSCAASGFSFSNYGMSWVRQTPDKRLEWVATISYGGSYTYYPDNIKGRFTISRDNAKNTLYLQMSSLKSEDTAMYYCVRGYGYDTMDYWGQGTSVTVSS
VL: DILLTQSPASLAVSLGQRAIISCKASQSVSFAGTGLMHWYQQKPGQQPKLLIYRASNLEAGVPTRFSGSGSRTDFTLNIHPVEEEDAATYFCQQSREYPWTFGGGTKLEIK
notes: Mouse hybridoma monoclonal; also called mAb 34D03; MU-34D03
[1]
  binding result: binds
[3]
  binding result: binds
[4]
  binding result: no binding
[5]
  binding result: no binding
[6]
  binding result: binds
[7]
  binding result: binds
pET101D-lacZ protein
  binding result: no binding
[8]
  binding result: binds
[9]
  binding result: binds
[10]
  binding result: no binding
[11]
  binding result: binds
